Five substances from publication doi:10.1101/2023.06.13.544862 can be followed below.

In test [1] the target is EED labelled for microscale thermophoresis (human) (UniProt O75530). Description: MST.
Test [2] has as its target JMJD3 JmjC domain labelled for microscale thermophoresis (UniProt O15054). Description: MST.

Chain of EED labelled for microscale thermophoresis (human) (O75530 whole entry, the tested form may be a part): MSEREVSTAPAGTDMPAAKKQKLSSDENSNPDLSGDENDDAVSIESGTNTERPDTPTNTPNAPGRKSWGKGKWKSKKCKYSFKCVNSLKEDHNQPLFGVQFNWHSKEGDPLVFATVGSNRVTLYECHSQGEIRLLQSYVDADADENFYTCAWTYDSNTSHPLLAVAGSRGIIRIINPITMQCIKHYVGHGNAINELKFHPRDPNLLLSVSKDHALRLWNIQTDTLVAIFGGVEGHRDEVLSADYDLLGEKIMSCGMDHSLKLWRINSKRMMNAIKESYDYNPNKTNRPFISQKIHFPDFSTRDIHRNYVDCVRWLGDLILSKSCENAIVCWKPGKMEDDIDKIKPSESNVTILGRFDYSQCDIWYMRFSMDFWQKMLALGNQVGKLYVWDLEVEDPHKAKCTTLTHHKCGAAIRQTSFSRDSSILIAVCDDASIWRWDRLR
Chain of JMJD3 JmjC domain labelled for microscale thermophoresis (O15054 1339-1502): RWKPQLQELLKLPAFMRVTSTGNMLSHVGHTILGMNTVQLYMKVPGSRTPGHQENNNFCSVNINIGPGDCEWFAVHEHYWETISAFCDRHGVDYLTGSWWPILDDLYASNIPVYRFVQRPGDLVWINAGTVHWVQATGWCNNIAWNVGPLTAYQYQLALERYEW

In test [1], “NOP16 aa 25-32 peptide, unmethylated K29 (from UniProt Q9Y3C1 25-32)” showed a Kd of 11.6 µM.

With “NOP16 aa 25-32 peptide, mono-methylated K29 (from UniProt Q9Y3C1 25-32)”, the dissociation constant Kd in test [1] was 100 µM.

Take H3K27me3 peptide: the Kd in test [1] was 0.95 µM; in test [2] it was 8.59 µM. Consider “NOP16 aa 25-32 peptide, tri-methylated K29 (from UniProt Q9Y3C1 25-32)”, for which, in test [1], the Kd worked out at 1.21 µM. On to “NOP16 aa 25-32 peptide, di-methylated K29 (from UniProt Q9Y3C1 25-32)”, for which the Kd in test [1] came to 131 µM.

In general, Kd refers to the constant that tells how readily two partners part at equilibrium.
